{"source": "patent US20200276302A1", "about": "(OSAKA UNIVERSITY, published 2020)", "key": {"[1]": {"molecular_target": "T1, mouse PlexinA1 recombinant protein expressed on Ba/F3 cells (mouse, UniProt P70206 25-1290)", "T1 construct": "also called Mouse PlexinA1/BaF3; mouse PlexinA1-expressing cell line", "T1 sequence (P70206 other isoform, or with tags, fused parts or gaps limits assumed)": "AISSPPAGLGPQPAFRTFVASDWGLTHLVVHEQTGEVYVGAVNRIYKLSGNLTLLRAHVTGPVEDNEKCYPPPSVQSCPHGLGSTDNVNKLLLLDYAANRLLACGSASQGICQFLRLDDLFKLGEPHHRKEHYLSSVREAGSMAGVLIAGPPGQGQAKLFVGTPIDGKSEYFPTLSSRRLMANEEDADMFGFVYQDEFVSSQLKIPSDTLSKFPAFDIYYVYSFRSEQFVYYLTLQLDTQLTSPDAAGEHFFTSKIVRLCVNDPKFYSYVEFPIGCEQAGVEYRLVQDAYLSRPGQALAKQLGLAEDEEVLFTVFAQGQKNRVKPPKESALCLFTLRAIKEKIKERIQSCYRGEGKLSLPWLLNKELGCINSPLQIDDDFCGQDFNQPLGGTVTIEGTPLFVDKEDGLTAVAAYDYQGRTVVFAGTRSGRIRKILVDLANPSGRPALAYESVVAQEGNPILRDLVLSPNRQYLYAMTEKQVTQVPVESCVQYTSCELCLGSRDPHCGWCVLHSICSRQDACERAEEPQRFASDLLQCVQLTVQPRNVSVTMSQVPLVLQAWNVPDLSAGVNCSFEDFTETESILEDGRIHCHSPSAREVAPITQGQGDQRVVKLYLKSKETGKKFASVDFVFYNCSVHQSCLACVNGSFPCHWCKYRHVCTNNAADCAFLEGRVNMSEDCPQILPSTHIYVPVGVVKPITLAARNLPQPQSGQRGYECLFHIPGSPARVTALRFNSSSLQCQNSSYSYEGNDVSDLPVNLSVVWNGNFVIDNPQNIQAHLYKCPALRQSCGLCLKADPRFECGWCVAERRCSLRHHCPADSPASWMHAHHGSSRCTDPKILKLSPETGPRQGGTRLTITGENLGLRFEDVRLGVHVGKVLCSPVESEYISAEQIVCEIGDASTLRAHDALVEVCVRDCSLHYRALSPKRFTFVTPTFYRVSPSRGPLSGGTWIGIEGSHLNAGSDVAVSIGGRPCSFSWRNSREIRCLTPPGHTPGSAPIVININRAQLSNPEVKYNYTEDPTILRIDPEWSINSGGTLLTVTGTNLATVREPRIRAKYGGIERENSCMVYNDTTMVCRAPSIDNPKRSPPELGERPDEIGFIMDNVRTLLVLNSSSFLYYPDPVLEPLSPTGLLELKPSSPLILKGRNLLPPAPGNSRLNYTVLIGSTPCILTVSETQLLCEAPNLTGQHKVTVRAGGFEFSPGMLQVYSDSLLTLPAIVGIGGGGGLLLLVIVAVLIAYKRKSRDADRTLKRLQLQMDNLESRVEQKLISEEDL", "assay": "cell ELISA on mouse PlexinA1-expressing Ba/F3 cells against Ba/F3 cells", "method": "The antibodies obtained above were subjected to cell ELISA by the following procedure. Initially, 384-well plates were prepared, and mouse PlexinA1-expressing Ba/F3 cells and Ba/F3 cells (see Example 11) were each captured onto the bottom of different wells. After washing each well of the plates with PBS, the prepared antibodies were added at 20 μL/well, and the mixture was allowed to stand at room temperature for 1 hour. Then, each well was washed with 0.05% Tween 20-PBS, HRP-labeled anti-rabbit IgG antibody (Betyl, A120-101P) diluted 10000 times with 2% FBS-PBS was added at 20 μL/well, and the mixture was allowed to stand at room temperature for 1 hour. After washing each well of the plates with 0.05% Tween 20-PBS, the substrate solution (ABTS peroxidase substrate system) was dispensed at 20 μL/well to develop color for 1 hour at room temperature. Then, binding of the antibodies to mouse PlexinA1 was confirmed by measuring absorbance at 405 nm using SpectraMax from Molecular Devices, LLC."}, "[2]": {"molecular_target": "soluble mouse PlexinA1 protein (mouse, UniProt P70206 28-1242)", "sequence (P70206 other isoform, or with tags, fused parts or gaps limits assumed)": "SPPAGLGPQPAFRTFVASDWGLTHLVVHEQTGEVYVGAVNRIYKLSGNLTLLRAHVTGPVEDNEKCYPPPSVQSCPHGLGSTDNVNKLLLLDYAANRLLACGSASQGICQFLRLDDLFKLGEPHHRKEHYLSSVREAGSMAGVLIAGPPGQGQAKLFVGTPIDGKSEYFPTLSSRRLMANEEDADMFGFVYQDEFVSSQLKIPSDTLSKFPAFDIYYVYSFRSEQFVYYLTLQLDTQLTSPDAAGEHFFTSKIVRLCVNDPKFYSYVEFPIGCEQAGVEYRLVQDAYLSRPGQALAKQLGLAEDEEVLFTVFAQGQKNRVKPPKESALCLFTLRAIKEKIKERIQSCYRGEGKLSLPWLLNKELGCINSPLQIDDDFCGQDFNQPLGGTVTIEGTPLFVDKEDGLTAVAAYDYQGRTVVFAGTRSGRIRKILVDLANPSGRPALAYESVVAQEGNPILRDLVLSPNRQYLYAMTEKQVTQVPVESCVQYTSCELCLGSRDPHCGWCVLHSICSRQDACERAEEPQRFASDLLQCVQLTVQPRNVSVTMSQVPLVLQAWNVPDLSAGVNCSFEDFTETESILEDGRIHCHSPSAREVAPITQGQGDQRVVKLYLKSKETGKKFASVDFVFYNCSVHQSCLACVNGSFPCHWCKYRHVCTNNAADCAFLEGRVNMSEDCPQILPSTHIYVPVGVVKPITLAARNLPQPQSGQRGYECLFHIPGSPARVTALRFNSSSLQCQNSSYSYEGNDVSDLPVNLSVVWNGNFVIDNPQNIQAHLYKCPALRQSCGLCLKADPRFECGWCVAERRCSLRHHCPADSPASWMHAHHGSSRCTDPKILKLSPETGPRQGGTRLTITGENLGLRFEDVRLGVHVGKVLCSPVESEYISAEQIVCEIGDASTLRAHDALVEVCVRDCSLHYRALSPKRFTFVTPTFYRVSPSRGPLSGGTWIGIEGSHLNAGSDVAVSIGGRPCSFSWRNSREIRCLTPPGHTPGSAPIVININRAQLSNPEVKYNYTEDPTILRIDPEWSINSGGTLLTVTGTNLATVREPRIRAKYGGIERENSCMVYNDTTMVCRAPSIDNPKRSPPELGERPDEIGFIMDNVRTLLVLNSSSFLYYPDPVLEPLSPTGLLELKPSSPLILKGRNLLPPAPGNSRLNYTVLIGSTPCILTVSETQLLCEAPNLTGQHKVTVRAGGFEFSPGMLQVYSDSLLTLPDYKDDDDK", "assay": "BLI (OctetRED384), antibody on Protein G biosensor, mouse PlexinA1 at 260 nM", "method": "Note that the L chains of the antibodies derived from the human antibody naive library were not chimerized.\nSpecifically, the antibodies adjusted to 10 µg/mL by 10× diluted HBS-EP+(GE healthcare, BR-1006-69) were immobilized onto Protein G biosensors (ForteBIO), and human and mouse PlexinA1 adjusted to 260 nM with HBS-EP+ were applied thereto. The Protein G biosensors were regenerated using 10 mmol/L Glycine-HCl, pH 1.5 (GE Healthcare, BR-1003-54). After the measurement, analytical software Data analysis 7.0 (ForteBIO) was used to compute amounts of binding (FIG. 5). […] In FIG. 5, the vertical axis represents amounts of binding to human and mouse PlexinA1."}}}
{"binder": "anti-mouse PlexinA1 antibody PXB361b (antibody, Antagonist antibody) heavy: QSLEESGGDLVKPEGSLTLSCTASGFTISSSYWICWVRQAPGKGLEWIACIYVGSGDGYTYYASWAKGRFTISKTSSTTVTLRMTSLTAADTATYFCARGGDGGVGGFDFFDPWGPGTLVTVSSGQPKAPSVFPLAPCCGDTPSSTVTLGCLVKGYLPEPVTVTWNSGTLTNGVRTFPSVRQSSGLYSLSSVVSVTSSSQPVTCNVAHPATNTKVDKTVAPSTCSKPMCPPPELLGGPSVFIFPPKPKDTLMISRTPEVTCVVVDVSQDDPEVQFTWYINNEQVRTARPPLREQQFNSTIRVVSTLPIAHQDWLRGKEFKCKVHNKALPAPIEKTISKARGQPLEPKVYTMGPPREELSSRSVSLTCMINGFYPSDISVEWEKNGKAEDNYKTTPTVLDSDGSYFLYSKLSVPTSEWQRGDVFTCSVMHEALHNHYTQKSISRSPGK light: DVVLTQTPASVSEPVGGTVTIKCQATESINRNCAWYQQKPGQPPKLLIYRASTLASGVPSRFKGSGSGTEFTLTISDLECADAATYYCQCTDYGTYYVAFGGGTEVVVKGDPVAPTVLIFPPAADQVATGTVTIVCVANKYFPDVTVTWEVDGTTQTTGIENSKTPQNSADCTYNLSSTLTLTSTQYNSHKEYTCKVTQGTTSVVQSFNRGDC", "values": [{"measurement": "binding result", "setting": "[1]", "result": "binds"}]}
{"binder": "mouse chimeric human/mouse cross-reactive PlexinA1 antibody 359B2-2-3-6-mFc (antibody, mouse IgG2a, lambda, V domains shown, Mouse IgG2a heavy chain constant region; human light chain kept) VH: QVQLVQSGAEVKKPGASVKVSCKASGYTFTSYYMHWVRQAPGQGLEWMGIINPSGGSTSYAQKFQGRVTMTRDTSTSTVYMELSSLRSEDTAVYYCARAPGHYYYGMDVWGQGTTVTVSS VL: SYELTQPPSVSVSPGQTASITCSGDKLEDKYASWYQLKPGHSPVLVIYQDSKRPSGIPERFSGSNSGNTATLTISGTQAMDEADYYCRAWDSNTGDVVFGGGTKLTVLR", "values": [{"measurement": "binding result", "setting": "[2]", "result": "binds"}]}
{"binder": "mouse chimeric anti-mouse PlexinA1 antibody PXB361b-mFc (antibody, mouse IgG1, kappa, Rabbit variable regions on mouse IgG1 heavy and mouse light chain constant regions; Antagonist antibody) heavy: QSLEESGGDLVKPEGSLTLSCTASGFTISSSYWICWVRQAPGKGLEWIACIYVGSGDGYTYYASWAKGRFTISKTSSTTVTLRMTSLTAADTATYFCARGGDGGVGGFDFFDPWGPGTLVTVSSAKTTPPSVYPLAPGSAAQTNSMVTLGCLVKGYFPEPVTVTWNSGSLSSGVHTFPAVLQSDLYTLSSSVTVPSSTWPSETVTCNVAHPASSTKVDKKIVPRDCGCKPCICTVKEVSKVFIFPPKPKDVLTITLTPKVTCVVVDISKDDPEVQFSWFVDDVEVHTAQTQPREEQFNSTFRSVSELPIMHQDWLNGKEFKCRVNSAAFPAPIEKTISKTKGRPKAPQVYTIPPPKEQMAKDKVSLTCMITDFFPEDITVEWQWNGQPAENYKNTQPIMDTDGSYFVYSKLNVQKSNWEAGNTFTCSVLHEGLHNHHTEKSLSHSPGK light: DVVLTQTPASVSEPVGGTVTIKCQATESINRNCAWYQQKPGQPPKLLIYRASTLASGVPSRFKGSGSGTEFTLTISDLECADAATYYCQCTDYGTYYVAFGGGTEVVVKRADAAPTVSIFPPSSEQLTSGGASVVCFLNNFYPKDINVKWKIDGSERQNGVLNSWTDQDSKDSTYSMSSTLTLTKDEYERHNSYTCEATHKTSTSPIVKSFNRNEC", "values": [{"measurement": "binding result", "setting": "[2]", "result": "binds"}]}
{"binder": "mouse chimeric anti-mouse PlexinA1 antibody PXB693-mFc (antibody, mouse IgG2a, kappa, Rabbit variable regions on mouse IgG2a heavy and mouse light chain constant regions; Agonist antibody) heavy: QSVEESGGRLVTPGTPLTLTCTVSGFSLSSSAMTWVRQAPGKGLEWIGIINNSNIAAYASWTKGRFTISKTSTTVDLKITSPIIEDTATYFCARGDVGTTHYFNIWGPGTLVTVSSAKTTAPSVYPLAPVCGDTTGSSVTLGCLVKGYFPEPVTLTWNSGSLSSGVHTFPAVLQSDLYTLSSSVTVTSSTWPSQSITCNVAHPASSTKVDKKIEPRGPTIKPCPPCKCPAPNLRRGPKVFIFPPKIKDVLMISLSPIVTCVVVDVSEDDPDVQISWFVNNVEVHTAQTQTHREDYNSTLRVVSALPIQHQDWMSGKEFKCKVNNKDLPAPIERTISKPKGSVRAPQVYVLPPPEEEMTKKQVTLTCMVTDFMPEDIYVEWTNNGKTELNYKNTEPVLDSDGSYFMYSKLRVEKKNWVERNSYSCSVVHEGLHNHHTTKSFSRTPGK light: AAVLTQTPSPVSAVVGGTVSISCQSSKSVYNNNWLSWFQQKPGQPPKLLIYGASTLASGVPSRFKGSGSGTQFTLAISDVQCDDAATYYCAGGYINSDNFAFGGGTEVVVKRADAAPTVSIFPPSSEQLTSGGASVVCFLNNFYPKDINVKWKIDGSERQNGVLNSWTDQDSKDSTYSMSSTLTLTKDEYERHNSYTCEATHKTSTSPIVKSFNRNEC", "values": [{"measurement": "binding result", "setting": "[2]", "result": "binds"}]}
{"binder": "anti-mouse PlexinA1 antibody PXB693 (antibody) heavy: QSVEESGGRLVTPGTPLTLTCTVSGFSLSSSAMTWVRQAPGKGLEWIGIINNSNIAAYASWTKGRFTISKTSTTVDLKITSPIIEDTATYFCARGDVGTTHYFNIWGPGTLVTVSSGQPKAPSVFPLAPCCGDTPSSTVTLGCLVKGYLPEPVTVTWNSGTLTNGVRTFPSVRQSSGLYSLSSVVSVTSSSQPVTCNVAHPATNTKVDKTVAPSTCSKPMCPPPELLGGPSVFIFPPKPKDTLMISRTPEVTCVVVDVSQDDPEVQFTWYINNEQVRTARPPLREQQFNSTIRVVSTLPIAHQDWLRGKEFKCKVHNKALPAPIEKTISKARGQPLEPKVYTMGPPREELSSRSVSLTCMINGFYPSDISVEWEKNGKAEDNYKTTPTVLDSDGSYFLYSKLSVPTSEWQRGDVFTCSVMHEALHNHYTQKSISRSPGK light: AAVLTQTPSPVSAVVGGTVSISCQSSKSVYNNNWLSWFQQKPGQPPKLLIYGASTLASGVPSRFKGSGSGTQFTLAISDVQCDDAATYYCAGGYINSDNFAFGGGTEVVVKGDPVAPTVLIFPPAADQVATGTVTIVCVANKYFPDVTVTWEVDGTTQTTGIENSKTPQNSADCTYNLSSTLTLTSTQYNSHKEYTCKVTQGTTSVVQSFNRGDC", "values": [{"measurement": "binding result", "setting": "[1]", "result": "binds"}]}
